From paper PMC6303191

How the values were obtained:
VRC01 UCA (human) = assay: SPR
VRC01 UCA = assay: BLI; details: read at the end of association (300 s), read off a plot

Chain of VRC01 UCA (human) (heavy, as listed by the source, chain 1 of 2): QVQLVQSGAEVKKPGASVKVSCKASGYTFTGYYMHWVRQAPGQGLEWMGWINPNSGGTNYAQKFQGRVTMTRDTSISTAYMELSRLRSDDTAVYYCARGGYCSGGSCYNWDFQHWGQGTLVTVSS
Chain of VRC01 UCA (human) (light, as listed by the source, chain 2 of 2): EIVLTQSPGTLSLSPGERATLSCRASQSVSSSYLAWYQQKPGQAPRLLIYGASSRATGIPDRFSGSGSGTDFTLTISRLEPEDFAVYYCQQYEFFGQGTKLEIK

For TM4ΔV1-3 (monomer) (domain or fragment), the Kd (VRC01 UCA (human)) was over 100000 nM.

Substance TM4ΔV1-3 (heptamer) D368R; E370A has a response (VRC01 UCA; VRC01 UCA IgG x heptamer, parent: est. 0.43) of 0 nm.

Work on “BG505 SOSIP v4.1-GT1 trimer (from UniProt Q2N0S6 1-860) (complex)” yielded a Kd (VRC01 UCA (human)) of 3000 nM, a koff (VRC01 UCA (human)) of 0.018 s⁻¹ and a kon (VRC01 UCA (human)) of 8000 M⁻¹ s⁻¹.

TM4ΔV1-3 (24-mer) D268R; E370A gave a response (VRC01 UCA; VRC01 UCA IgG x 24-mer, parent: est. 0.68) of 0 nm.
